Experimental data taken from US20230285578A1 (INDIANA UNIVERSITY RESEARCH AND TECHNOLOGY, published 2023).
One block for each binder: values may come before it. Starred links: 1 amine or outer side, 2 acyl side, 3 side chain; linkers in the order of their positions; H or OH if unused. Groups on a side chain read outwards from the residue. No end group written: not given here. *: point of attachment. C18 diacid = O=C(O)CCCCCCCCCCCCCCCCC(=O)*; γGlu = O=C(O)[C@H](CCC(=O)[*:2])N[*:1]; AEEA = NCCOCCOCC(=O)O

Assays:
Experiment in all cases: cell-based or functional assay
[1] = molecular target: T1, PTH1 receptor, Q03431
T1 chain: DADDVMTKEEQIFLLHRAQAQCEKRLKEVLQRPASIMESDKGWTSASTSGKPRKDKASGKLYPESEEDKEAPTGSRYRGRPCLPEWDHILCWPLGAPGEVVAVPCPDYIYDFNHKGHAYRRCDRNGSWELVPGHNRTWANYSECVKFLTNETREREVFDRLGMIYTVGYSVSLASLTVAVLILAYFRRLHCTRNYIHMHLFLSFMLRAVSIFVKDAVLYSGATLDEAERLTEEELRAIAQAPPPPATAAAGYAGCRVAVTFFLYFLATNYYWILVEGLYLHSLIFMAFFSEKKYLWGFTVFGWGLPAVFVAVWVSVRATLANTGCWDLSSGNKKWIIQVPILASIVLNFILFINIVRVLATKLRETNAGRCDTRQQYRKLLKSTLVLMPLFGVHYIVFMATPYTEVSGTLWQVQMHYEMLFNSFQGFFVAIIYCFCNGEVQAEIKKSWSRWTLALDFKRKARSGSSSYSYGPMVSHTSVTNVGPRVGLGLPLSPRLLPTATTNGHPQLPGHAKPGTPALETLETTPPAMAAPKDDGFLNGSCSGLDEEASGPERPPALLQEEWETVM

[2] = molecular target: T2, PTH1 receptor (UniProt Q03431 27-593, limits assumed)
T2 sequence (looked up): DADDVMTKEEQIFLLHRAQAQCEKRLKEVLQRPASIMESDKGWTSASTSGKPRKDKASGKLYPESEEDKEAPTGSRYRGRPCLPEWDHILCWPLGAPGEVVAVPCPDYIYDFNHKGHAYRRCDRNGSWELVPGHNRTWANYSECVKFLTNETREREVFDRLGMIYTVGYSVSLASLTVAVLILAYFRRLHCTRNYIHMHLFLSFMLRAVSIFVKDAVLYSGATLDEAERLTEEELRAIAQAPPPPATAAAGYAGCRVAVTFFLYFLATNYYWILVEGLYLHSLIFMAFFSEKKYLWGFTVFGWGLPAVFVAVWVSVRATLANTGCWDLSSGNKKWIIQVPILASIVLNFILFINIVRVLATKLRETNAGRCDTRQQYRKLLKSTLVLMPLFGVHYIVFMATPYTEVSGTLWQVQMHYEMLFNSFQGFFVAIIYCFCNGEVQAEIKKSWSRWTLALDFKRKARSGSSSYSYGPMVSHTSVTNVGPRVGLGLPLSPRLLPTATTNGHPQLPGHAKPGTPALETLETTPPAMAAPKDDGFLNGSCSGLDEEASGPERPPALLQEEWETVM

[3] = molecular target: T2, PTH1 receptor; remark: listed apart in the source
[4] = molecular target: T2, PTH1 receptor; remark: listed apart in the source
[5] = molecular target: T2, PTH1 receptor; remark: listed apart in the source
[6] = molecular target: T2, PTH1 receptor; remark: listed apart in the source
[7] = molecular target: T2, PTH1 receptor; remark: listed apart in the source
[8] = molecular target: T2, PTH1 receptor; remark: listed apart in the source

B1: PTH(1-34), dK-1(γE-diacidC18), N(Me)G0 (peptide)
peptide: XXSVSEIQLMHNLGKHLNSMERVEWLRKKLQDVHNF
modifications: d-Lys at position -1 with side chain acylated with γE-COC16H32CO2H; N-methyl-Gly (sarcosine) at position 0; C-terminal free acid
Potency EC50 (cAMP-responsive luciferase reporter, HEK293 cells co-transfected with the PTH1 receptor) [2]: 45.5 nM

B2: PTH(1-33), K33(γE-2xOEG-γE-diacidC18) (peptide)
peptide: SVSEIQLMHNLGKHLNSMERVEWLRKKLQDVHX
modifications: Lys33 side chain acylated with γE-(miniPEG)2-γE-COC16H32CO2H; C-terminal free acid
EC50 pM (cAMP Hunter Teriparatide Bioassay, CHO-K1 PTHR1 cells; FIG. 8A) [3]: 31 pM
EC50 pM (cAMP Hunter Teriparatide Bioassay, CHO-K1 PTHR1 cells; FIG. 11) [4]: 10 pM
EC50 pM (cAMP Hunter Teriparatide Bioassay, CHO-K1 PTHR1 cells; FIG. 12) [5]: 36.6 pM
EC50 pM (cAMP Hunter Teriparatide Bioassay, CHO-K1 PTHR1 cells; FIG. 13A) [6]: 10.7 pM
EC50 pM (cAMP Hunter Teriparatide Bioassay, CHO-K1 PTHR1 cells; FIG. 13B) [7]: 19.3 pM

Binder: SVSEIQLMHNLGKHLNSXERVEWLRKKLQDVHX (site-specifically oxidised to methionine sulfoxide (position not given)) [SEQ ID NO: 110]
EC50 pM (cAMP Hunter Teriparatide Bioassay, CHO-K1 PTHR1 cells; FIG. 12) [5]: 41.7 pM

Binder: SVSEIELMHNLGKHLNSMERVEWLRKKLQDVHK([γGlu-miniPEG-miniPEG-γGlu-C18 diacid]) (ends and bridges not checked) [SEQ ID NO: 118]
EC50 pM (cAMP Hunter Teriparatide Bioassay, CHO-K1 PTHR1 cells; FIG. 13A) [1]: 80.3 pM

B3: PTH(1-35)a, dK-1(γE-diacidC18), N(Me)G0, K35(γE-diacidC18) (peptide)
peptide: XXSVSEIQLMHNLGKHLNSMERVEWLRKKLQDVHNFX
modifications: d-Lys at position -1 with side chain acylated with γE-COC16H32CO2H; N-methyl-Gly (sarcosine) at position 0; Lys35 side chain acylated with γE-COC16H32CO2H; C-terminal amide
Potency EC50 (cAMP-responsive luciferase reporter, HEK293 cells co-transfected with the PTH1 receptor) [2]: 200 nM

B4: PTH(1-33), A8, K33(γE-2xOEG-γE-diacidC18) (peptide)
peptide: SVSEIQLAHNLGKHLNSMERVEWLRKKLQDVHK([γGlu-AEEA-AEEA-γGlu-C18 diacid])-OH
modifications: N-terminus assumed
SMILES: CC[C@H](C)[C@H](NC(=O)[C@H](CCC(=O)O)NC(=O)[C@H](CO)NC(=O)[C@@H](NC(=O)[C@@H](N)CO)C(C)C)C(=O)N[C@@H](CCC(N)=O)C(=O)N[C@@H](CC(C)C)C(=O)N[C@@H](C)C(=O)N[C@@H](Cc1c[nH]cn1)C(=O)N[C@@H](CC(N)=O)C(=O)N[C@@H](CC(C)C)C(=O)NCC(=O)N[C@@H](CCCCN)C(=O)N[C@@H](Cc1c[nH]cn1)C(=O)N[C@@H](CC(C)C)C(=O)N[C@@H](CC(N)=O)C(=O)N[C@@H](CO)C(=O)N[C@@H](CCSC)C(=O)N[C@@H](CCC(=O)O)C(=O)N[C@@H](CCCNC(=N)N)C(=O)N[C@H](C(=O)N[C@@H](CCC(=O)O)C(=O)N[C@@H](Cc1c[nH]c2ccccc12)C(=O)N[C@@H](CC(C)C)C(=O)N[C@@H](CCCNC(=N)N)C(=O)N[C@@H](CCCCN)C(=O)N[C@@H](CCCCN)C(=O)N[C@@H](CC(C)C)C(=O)N[C@@H](CCC(N)=O)C(=O)N[C@@H](CC(=O)O)C(=O)N[C@H](C(=O)N[C@@H](Cc1c[nH]cn1)C(=O)N[C@@H](CCCCNC(=O)CC[C@H](NC(=O)COCCOCCNC(=O)COCCOCCNC(=O)CC[C@H](NC(=O)CCCCCCCCCCCCCCCCC(=O)O)C(=O)O)C(=O)O)C(=O)O)C(C)C)C(C)C
in vitro potency (fold reduction against the analog without A8) [8]: ~100 fold

Binder: SVSEIQLMHNLGKHLNSMERVEWLRKKLQDVHNFX (Lys35 side chain acylated with γE-COC16H32CO2H (C18 diacid); C-terminal amide) [PTH(1-35)a, K35(γE-diacidC18)]
Potency EC50 (cAMP-responsive luciferase reporter, HEK293 cells co-transfected with the PTH1 receptor) [2]: 2.9 nM

More lines, now with the values ahead:

EC50 pM (cAMP Hunter Teriparatide Bioassay, CHO-K1 PTHR1 cells; FIG. 13B) [1]: 43.1 pM
Binder: SVSEIQLMHNLGKHLNSMERVEWLRKKLEDVHK([γGlu-miniPEG-miniPEG-γGlu-C18 diacid]) (ends and bridges not checked) [SEQ ID NO: 124]

EC50 pM (cAMP Hunter Teriparatide Bioassay, CHO-K1 PTHR1 cells; FIG. 13A) [1]: 10.9 pM
Binder: SVSEIQLMHDLGKHLNSMERVEWLRKKLQDVHK([γGlu-miniPEG-miniPEG-γGlu-C18 diacid]) (ends and bridges not checked) [SEQ ID NO: 120]

EC50 pM (cAMP Hunter Teriparatide Bioassay, CHO-K1 PTHR1 cells; FIG. 13B) [1]: 14.3 pM
Binder: SVSEIQLMHNLGKHLDSMERVEWLRKKLQDVHK([γGlu-miniPEG-miniPEG-γGlu-C18 diacid]) (ends and bridges not checked) [SEQ ID NO: 122]
